{"source": "patent US20250382354A1", "about": "(INSTITUTE FOR RESEARCH IN BIOMEDICINE IRB, published 2025)", "data": [{"target": "SARS-CoV-2 S of the Ancestral pseudovirus (pSARS-COV2-Strunc) (SARS-CoV-2 (ancestral), UniProt P0DTC2 14-1254)", "experiment": "cell-based or functional assay", "units": {"Ancestral Pseudovirus IC50": "µg/mL"}, "values": [{"binder": "rbd.112 (antibody, V domains shown) VH: EVQLVQSGAEVKKSGESLKISCKSSGYSFTTYWIAWVRQMPGKGLEWMGIIYPGHSDARYSPSFQGHVTISADKSISTAYLQWRSLKASDTAIYYCARLSYYDVSNFYYYDSYWFDSWGLGTLVTVSS VL: QSVLTQPPSVSGAPGQRVTISCTGSSSNLGAGYDVHWYQQLPGTAPKLLIYANSNRPSGVPDRFSGSKSGTSASLAMTGLQAEDEADYYCQSYDSSLGGYVFGFGTKVTVL", "Ancestral Pseudovirus IC50": 0.0867}, {"binder": "rbd.110 (antibody, V domains shown) VH: EVQLVESGGGVVQPGRSLRLSCVASGFTFSRYGMHWVRQAPGKGLEWVATILYDGSDQYYAESVKGRFTISRDNSKNTLYLQMNSLREADTAVYYCAKTSYGYAYNFRLYFDYWGQGTLVTVSS VL: SYELTQPPSVSVAPGKTATITCGGNNIGSAGVHWYQQRPGQAPVLVVYDDSDRPSGIPERFSGSTSGNTATLTISRVEAGDEADYYCQVWDSNSAPVIFGGGTKLTVL", "Ancestral Pseudovirus IC50": 4.25}, {"binder": "rbd.049 (antibody, V domains shown) VH: QLQLQESGPGLVKPSETLSLSCTVSGGSISSKSDYWGWIRQSPGKGLEWIGSIYYTGTTYYNPSLKSRVSISLDKSKNQFSLKLNSLTAADTALYYCARDPSIAVATTVYFDAWGQGTLVTVSS VL: EIVLTQSPGTLSLSPGERATLSCRASESVKSNYLAWYQQKLGQPPRLLIFGASTRATGIPDRFSGSGSGTDFTLTISRLEPEDFAVYYCQQYHTSPPRYTFGQGTKLEIK", "Ancestral Pseudovirus IC50": 3.71}, {"binder": "rbd.113 (antibody, V domains shown) VH: EVQLVQSGAAVKKPGESLKISCKGSGYSFTNYWIGWVRQMPGKGLELMGIIYVGDSDTRYSPSFQGQVTISADKSITTAYLQWSSLKASDSAIYYCARQRCGGDCPFDLWGRGTLVTVSS VL: DIQMTQSPSTLSASVGDRVTITCRASQSINRWLAWYQQKPGKAPELLIYDASDLESGVPSRFSGSGSGTEFTLTISSLQPDDFATYYCQQYNSYWTFGQGTKVEIK", "Ancestral Pseudovirus IC50": 0.373}, {"binder": "rbd.106 (antibody, V domains shown) VH: EVQLVQSGAEVKKPGESLKISCKGSGYSFYNHWIAWVRQMPGKGLEWMGIIYPYDSDTRYSPSFQGQVTISADKSITTAYLQWSSLKASDTAIYYCARRSDYGEFGGHSDYWGQGTLVTVSS VL: not shown", "Ancestral Pseudovirus IC50": 0.0674}, {"binder": "rbd.117 (antibody, V domains shown) VH: EVQLVESGGGLVQPGGSLRLSCAASGFTFSRYAMSWVRQAPGKGLEWVSGLSGSGDSTYYADSVKGRFTISRDNSKKTLNLQMNSLRPEDTAVYYCAKGSRFGIDYFDCWGQGTLVTVSS VL: DIQMTQSPSTLSASVGDRVTITCRASQSISSWLAWYQLKPGKAPKLLIYDASSLESGVPSRFSGSGSGTEFTLTISSLQPDDFATYYCQQYNTYPFSFGPGTKVDIK", "Ancestral Pseudovirus IC50": 0.203}]}, {"target": "C-terminally truncated SARS-CoV-2 S protein (pSARS-CoV2-Strunc), ancestral (SARS-CoV-2, UniProt P0DTC2 14-1273)", "experiment": "cell-based or functional assay", "units": {"Ancestral Pseudovirus IC50": "µg/mL", "Ancestral Pseudovirus IC50 (on cells with [not given])": "µg/mL"}, "values": [{"binder": "hr2.090 (antibody, V domains shown) VH: EVQLLESGGGLVQPGGSLRLSCAASGVTFSRYAMSWVRQAPGKGLEWVSTISGGGGGTYYADSVKGRFTISRDNSKNTLYLQMNSLRAEDTAVYYCATLLTVPGPYYFEYWGQGTLVTVSS VL: EIVLTQSPGTLSLSPGERATLSCRASQSVSSSYLAWYQQKPGQAPRLLIYGASSRATGIPDRFSGSGSGTDFTLTISRLESEDFAVYYCQHSRFTFGPGTRVDIK", "Ancestral Pseudovirus IC50": 1.02}, {"binder": "hr2.019 (antibody, V domains shown) VH: EVQLVESGGGLVKPGGSLRLSCAASGSSVIDVWMNWVRQAPGKGLEWVGRIKTKASGAATDYGAPVKGRFTISRDDSKNLSYLQMNSLRAEDTGIYYCTTSPLPNFDYWGRGTLVTVSS VL: DIVMTQSPDFLAVSLGETATINCRSSQSVFYFANNKNYLAWYQQKPGQPPKLLIYWASKRESGVPDRFSGSGSGTDFTLTISSLQAEDVATYYCQQYSSPAITFGPGTKVDIK", "Ancestral Pseudovirus IC50": 1.22}, {"binder": "fp.007 (antibody, V domains shown) VH: EVQLVESGGGLVKPGGSLRLSCAGTGFIFSDAWMTWVRQAPGKGLEWVGRIKSKADGGTTDYAAPVKGRFTISRDDSKNTLYLEINSLKTEDTAVYYCTTGRSRYCIGAVCYYFDHWGQGTLVTVSS VL: not shown", "Ancestral Pseudovirus IC50": 11.1, "Ancestral Pseudovirus IC50 (on cells with [not given])": 3.98}]}]}
